Test results as given in patent US20230295310A1 (ABCELLERA BIOLOGICS, published 2023).

Target: human EGFR, C-terminal eGFP-tagged, on CHO-K1 cells (human, UniProt P00533 25-1210)
Assay: cell-based or functional assay

| Binder | EC50 CHO-K1 EGFR Low (nM); T cell activation bioassay, luciferase [nM] | EC50 CHO-K1 EGFR Med (nM); T cell activation bioassay, luciferase [nM] |
| --- | --- | --- |
| GOMP001_bsAb_041 (bispecific antibody, human IgG1, kappa, L234A L235A) heavy 1: QVQLVQSGAEVKKPGASVKVSCKASGYTFTSHWMHWVRKAPGQGLEWIGEFNPSNGRTNYNEEFKSKATMTVDTSTNTAYMELSSLRSEDTAVYYCASRDYDYDGRYFDYWGQGTLVTVSSASTKGPSVFPLAPSSKSTSGGTAALGCLVADYFPEPVTVSWNSGALTSGVHTFPAVLQSSGLYSLSSVVTVPSSSLGTQTYICNVNHKPSNTKVDEKVEPKSCDKTHTCPPCPAPEAAGGPSVFLFPPKPKDTLMISRTPEVTCVVVDVSHEDPEVKFNWYVDGVEVHNAKTKPREEQYNSTYRVVSVLTVLHQDWLNGKEYKCKVSNKALPAPIEKTISKAKGQPREPQVYTLPPSREEMTDNQVSLTCLVKGFYPSDIAVEWESNGQPENNYKTTPPVLMSDGSFFLASKLTVDKSRWQQGNVFSCSVMHEALHNHYTQKSLSLSPG light 1: RIQMTQSPSSLSASVGDRVTITCSASSSVTYMYWYQDKPGKAPKLLIYDTSNLASGVPSRFSGSGSGTDYTFTISSLQPEDIATYYCQQWSSHIFTFGQGTKVEIKRTVAAPSVFIFPPSDKQLKSGTARVVCLLNNFYPREAKVQWKVDNALQSGNSQESVTEQDSKDSTYSLSSTLTLSKADYEKHKVYACEVTHQGLSSPVTKSFNRGEC heavy 2: EVQLVESGGGLVKTGGSLRLSCVASGFSFKKAWMNWVRYAPGKGLEWVGRIKRNTDGGPADYAARVKGRFTLSRDDSKKTLYLQMNSLKTEDTAVYYCTTLDSSSWYVGYYYMDVWGRGTTVTVSSASTKGPSVFPLAPSSKSTSGGTAALGCLVKDYFPEPVTVSWNSGALTSGVHTFPAVLQSSGLYSLSSVVTVPSSSLGTQTYICNVNHKPSNTKVDKKVEPKSCDKTHTCPPCPAPEAAGGPSVFLFPPKPKDTLMISRTPEVTCVVVDVSHEDPEVKFNWYVDGVEVHNAKTKPREEQYNSTYRVVSVLTVLHQDWLNGKEYKCKVSNKALPAPIEKTISKAKGQPRRPRVYTLPPSREEMTKNQVSLVCLVKGFYPSDIAVEWESNGQPENNYKTTPPVLDSDGSFFLYSVLTVDKSRWQQGNVFSCSVMHEALHNHYTQKSLSLSPG light 2: DIQMTQSPSSVSASVGDRVIITCRASQDINNWLAWYLRRPGDAPKLLIYAASSLQSGVPSRFSGSGSGTDFTLTIGSLQPEDFATYYCQQAHSLPITFGQGTRLEIQRTVAAPSVFIFPPSDEQLKSGTASVVCLLNNFYPREAKVQWKVDNALQSGNSQESVTEQDSKDSTYSLSSTLTLSKADYEKHKVYACEVTHQGLSSPVTKSFNRGEC | 0.297 | 0.022 |
| GOMP001_bsAb_043 (bispecific antibody, human IgG1, kappa, L234A L235A) heavy 1: QVQLVQSGAEVKKPGASVKVSCKASGYTFTSHWMHWVRKAPGQGLEWIGEFNPSNGRTNYNEEFKSKATMTVDTSTNTAYMELSSLRSEDTAVYYCASRDYDYDGRYFDYWGQGTLVTVSSASTKGPSVFPLAPSSKSTSGGTAALGCLVADYFPEPVTVSWNSGALTSGVHTFPAVLQSSGLYSLSSVVTVPSSSLGTQTYICNVNHKPSNTKVDEKVEPKSCDKTHTCPPCPAPEAAGGPSVFLFPPKPKDTLMISRTPEVTCVVVDVSHEDPEVKFNWYVDGVEVHNAKTKPREEQYNSTYRVVSVLTVLHQDWLNGKEYKCKVSNKALPAPIEKTISKAKGQPREPQVYTLPPSREEMTDNQVSLTCLVKGFYPSDIAVEWESNGQPENNYKTTPPVLMSDGSFFLASKLTVDKSRWQQGNVFSCSVMHEALHNHYTQKSLSLSPG light 1: RIQMTQSPSSLSASVGDRVTITCSASSSVTYMYWYQDKPGKAPKLLIYDTSNLASGVPSRFSGSGSGTDYTFTISSLQPEDIATYYCQQWSSHIFTFGQGTKVEIKRTVAAPSVFIFPPSDKQLKSGTARVVCLLNNFYPREAKVQWKVDNALQSGNSQESVTEQDSKDSTYSLSSTLTLSKADYEKHKVYACEVTHQGLSSPVTKSFNRGEC heavy 2: EVQLVESGGGLVKTGGSLRLSCVASGFSFKKAWMNWVRYAPGKGLEWVGRIKRNTDGGTADYAARVKGRFTLSRDDSKKTLFLQMNSLKTEDTAVYYCTTLDSSSYYVGYYYMDVWGRGTTVTVSSASTKGPSVFPLAPSSKSTSGGTAALGCLVKDYFPEPVTVSWNSGALTSGVHTFPAVLQSSGLYSLSSVVTVPSSSLGTQTYICNVNHKPSNTKVDKKVEPKSCDKTHTCPPCPAPEAAGGPSVFLFPPKPKDTLMISRTPEVTCVVVDVSHEDPEVKFNWYVDGVEVHNAKTKPREEQYNSTYRVVSVLTVLHQDWLNGKEYKCKVSNKALPAPIEKTISKAKGQPRRPRVYTLPPSREEMTKNQVSLVCLVKGFYPSDIAVEWESNGQPENNYKTTPPVLDSDGSFFLYSVLTVDKSRWQQGNVFSCSVMHEALHNHYTQKSLSLSPG light 2: DIQMTQSPSSVSASVGDRVTITCRASQDINNWLAWYQRKPGDAPKLLIYTASSLQSGVPSRFSGSGSGTDFTLTIGSLQPEDFATYYCQQAHSLPITFGQGTRLEIKRTVAAPSVFIFPPSDEQLKSGTASVVCLLNNFYPREAKVQWKVDNALQSGNSQESVTEQDSKDSTYSLSSTLTLSKADYEKHKVYACEVTHQGLSSPVTKSFNRGEC | 0.0706 | 0.0122 |
| GOMP001_bsAb_042 (bispecific antibody, human IgG1, kappa, L234A L235A) heavy 1: EVQLVESGGGLVKTGGSLRLSCVASGFSFKKAWMNWVRYAPGKGLEWVGRIKRNTDGGPADYAARVKGRFTLSRDDSKKTLYLQMNSLKTEDTAVYYCTTLDSSSWYVGYYYMDVWGRGTTVTVSSASTKGPSVFPLAPSSKSTSGGTAALGCLVKDYFPEPVTVSWNSGALTSGVHTFPAVLQSSGLYSLSSVVTVPSSSLGTQTYICNVNHKPSNTKVDKKVEPKSCDKTHTCPPCPAPEAAGGPSVFLFPPKPKDTLMISRTPEVTCVVVDVSHEDPEVKFNWYVDGVEVHNAKTKPREEQYNSTYRVVSVLTVLHQDWLNGKEYKCKVSNKALPAPIEKTISKAKGQPRRPRVYTLPPSREEMTKNQVSLVCLVKGFYPSDIAVEWESNGQPENNYKTTPPVLDSDGSFFLYSVLTVDKSRWQQGNVFSCSVMHEALHNHYTQKSLSLSPG light 1: DIQMTQSPSSVSASVGDRVIITCRASQDINNWLAWYLRRPGDAPKLLIYAASSLQSGVPSRFSGSGSGTDFTLTIGSLQPEDFATYYCQQAHSLPITFGQGTRLEIQRTVAAPSVFIFPPSDEQLKSGTASVVCLLNNFYPREAKVQWKVDNALQSGNSQESVTEQDSKDSTYSLSSTLTLSKADYEKHKVYACEVTHQGLSSPVTKSFNRGEC heavy 2: QVQLVQSGAEVKKPGASVKVSCKASGYTFTSHWMHWVRYAPGQGLEWIGEFNPSNGRTNYNEKFKSKATMTVDTSTNTAYMELSSLRSEDTAVYYCASRDYDYDGRYFDYWGRGTLVTVSSASTKGPSVFPLAPSSKSTSGGTAALGCLVKDYFPEPVTVSWNSGALTSGVHTFPAVLQSSGLYSLSSVVTVPSSSLGTQTYICNVNHKPSNTKVDKKVEPKSCDKTHTCPPCPAPEAAGGPSVFLFPPKPKDTLMISRTPEVTCVVVDVSHEDPEVKFNWYVDGVEVHNAKTKPREEQYNSTYRVVSVLTVLHQDWLNGKEYKCKVSNKALPAPIEKTISKAKGQPRRPRVYTLPPSREEMTKNQVSLVCLVKGFYPSDIAVEWESNGQPENNYKTTPPVLDSDGSFFLYSVLTVDKSRWQQGNVFSCSVMHEALHNHYTQKSLSLSPG light 2: DIQMTQSPSSLSASVGDRVTITCSASSSVTYMYWYQRKPGDAPKLLIYDTSNLASGVPSRFSGSGSGTDYTFTISSLQPEDIATYYCQQWSSHIFTFGQGTKVEIKRTVAAPSVFIFPPSDEQLKSGTASVVCLLNNFYPREAKVQWKVDNALQSGNSQESVTEQDSKDSTYSLSSTLTLSKADYEKHKVYACEVTHQGLSSPVTKSFNRGEC | 0.0439 | 0.00223 |
